{"source": "patent US20220119825A1", "about": "“SCALABLE PEPTIDE-GPCR INT[…] SYSTEMS” (THE TRUSTEES OF COLUMBIA UNIVERSITY IN THE CITY OF NEW YORK, priority 2019, published 2022)", "experiment_in_all_cases": "cell-based or functional assay", "key": {"[1]": {"target": "T1, Kp.Ste2, Ste2-like mating GPCR of Komagataella (Pichia) pastoris (Komagataella (Pichia) pastoris)", "T1 chain": "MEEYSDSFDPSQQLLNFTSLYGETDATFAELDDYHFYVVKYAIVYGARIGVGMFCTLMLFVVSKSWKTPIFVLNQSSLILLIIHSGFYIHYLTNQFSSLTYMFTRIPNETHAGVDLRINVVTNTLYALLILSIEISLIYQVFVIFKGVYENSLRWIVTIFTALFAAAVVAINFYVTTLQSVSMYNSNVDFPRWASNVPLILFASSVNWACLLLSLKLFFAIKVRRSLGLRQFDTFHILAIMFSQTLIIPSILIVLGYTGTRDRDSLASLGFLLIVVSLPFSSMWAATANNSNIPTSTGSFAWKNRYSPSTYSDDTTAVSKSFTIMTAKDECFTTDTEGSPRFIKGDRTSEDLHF"}, "[2]": {"target": "T2, Ct.Ste2, Ste2-like mating GPCR of Candida tropicalis (Candida tropicalis)", "T2 chain": "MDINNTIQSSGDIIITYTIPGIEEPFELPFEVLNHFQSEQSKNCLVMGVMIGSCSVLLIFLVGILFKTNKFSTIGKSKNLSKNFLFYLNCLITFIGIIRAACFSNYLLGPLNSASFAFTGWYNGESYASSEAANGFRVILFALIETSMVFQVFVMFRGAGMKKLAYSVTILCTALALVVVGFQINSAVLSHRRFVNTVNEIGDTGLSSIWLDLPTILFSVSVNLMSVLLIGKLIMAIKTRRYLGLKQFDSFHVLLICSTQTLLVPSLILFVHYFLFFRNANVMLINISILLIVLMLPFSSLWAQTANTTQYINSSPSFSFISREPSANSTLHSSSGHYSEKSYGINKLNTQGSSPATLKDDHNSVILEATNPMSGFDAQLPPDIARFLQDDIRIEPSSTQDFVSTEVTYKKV"}, "[3]": {"target": "T3, Kl.Ste2, Ste2-like mating GPCR of Kluyveromyces lactis (Kluyveromyces lactis)", "T3 chain": "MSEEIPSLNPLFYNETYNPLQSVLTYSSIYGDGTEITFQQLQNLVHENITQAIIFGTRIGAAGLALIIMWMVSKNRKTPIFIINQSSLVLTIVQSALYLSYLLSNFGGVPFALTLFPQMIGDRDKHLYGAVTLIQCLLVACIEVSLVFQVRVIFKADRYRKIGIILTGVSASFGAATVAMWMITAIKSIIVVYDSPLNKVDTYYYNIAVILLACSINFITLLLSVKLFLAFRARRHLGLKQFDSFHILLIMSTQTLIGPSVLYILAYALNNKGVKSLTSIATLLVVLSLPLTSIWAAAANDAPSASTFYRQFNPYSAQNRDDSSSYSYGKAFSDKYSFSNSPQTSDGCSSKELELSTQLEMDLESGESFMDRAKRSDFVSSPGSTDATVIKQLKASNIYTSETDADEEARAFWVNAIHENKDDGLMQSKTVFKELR"}, "[4]": {"target": "T4, Sc.Ste2, Saccharomyces cerevisiae mating GPCR Ste2 (Saccharomyces cerevisiae, UniProt D6VTK4 1-431)", "T4 sequence": "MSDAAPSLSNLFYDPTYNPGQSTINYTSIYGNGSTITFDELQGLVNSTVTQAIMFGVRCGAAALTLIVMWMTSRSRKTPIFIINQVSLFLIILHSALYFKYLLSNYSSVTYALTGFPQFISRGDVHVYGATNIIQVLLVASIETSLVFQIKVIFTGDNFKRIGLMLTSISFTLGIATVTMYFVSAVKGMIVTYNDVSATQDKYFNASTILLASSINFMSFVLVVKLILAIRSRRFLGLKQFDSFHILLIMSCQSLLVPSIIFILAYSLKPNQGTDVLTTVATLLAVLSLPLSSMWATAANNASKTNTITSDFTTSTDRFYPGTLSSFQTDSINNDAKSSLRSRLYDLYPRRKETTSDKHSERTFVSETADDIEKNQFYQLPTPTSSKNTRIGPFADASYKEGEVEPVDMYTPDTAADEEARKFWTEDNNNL"}, "[5]": {"target": "T4, Sc.Ste2, Saccharomyces cerevisiae …", "remark": "listed apart in the source"}, "[6]": {"target": "T5, Gc.Ste2, Ste2-like mating GPCR of Geotrichum candidum (Geotrichum candidum)", "T5 chain": "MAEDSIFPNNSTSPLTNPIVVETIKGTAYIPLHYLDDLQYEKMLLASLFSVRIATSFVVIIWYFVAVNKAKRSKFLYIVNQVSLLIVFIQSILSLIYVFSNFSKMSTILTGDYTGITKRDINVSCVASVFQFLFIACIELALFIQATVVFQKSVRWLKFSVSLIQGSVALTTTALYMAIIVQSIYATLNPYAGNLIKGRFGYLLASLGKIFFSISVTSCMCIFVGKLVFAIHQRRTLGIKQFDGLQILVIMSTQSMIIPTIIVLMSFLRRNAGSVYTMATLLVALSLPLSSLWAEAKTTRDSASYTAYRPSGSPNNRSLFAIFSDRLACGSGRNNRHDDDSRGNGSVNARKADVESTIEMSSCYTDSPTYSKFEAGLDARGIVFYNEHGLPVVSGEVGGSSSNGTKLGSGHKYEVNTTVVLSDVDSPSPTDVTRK"}}, "note": "Values joined by “and” are separate entries in the source; they are usually repeats but may differ in a detail not shown here. Identical values can stand only once. Like-named read-outs stand apart in the source and are kept apart here."}
{"binder": "FRWRNNEKNQPFG", "note": "[Kp peptide ligand #1 (Table 3: …)]", "values": [{"measurement": "Bttm (FUS1p-RFP reporter)", "setting": "[1]", "result": "44.8 fluorescence/A600 (not printed)"}, {"measurement": "EC50 (FUS1p-RFP reporter)", "setting": "[1]", "result": "-8.2 log10 M (not printed)"}, {"measurement": "Fold Change (FUS1p-RFP reporter)", "setting": "[1]", "result": 6, "unit": "fold"}, {"measurement": "Span (FUS1p-RFP reporter)", "setting": "[1]", "result": "224 fluorescence/A600 (not printed)"}, {"measurement": "Top (FUS1p-RFP reporter)", "setting": "[1]", "result": "269 fluorescence/A600 (not printed)"}]}
{"binder": "KFKFRLTRYGWFSPN", "note": "[Ct peptide ligand #1 KFKFRLTRYGWFSPN]", "values": [{"measurement": "Bttm (FUS1p-RFP reporter)", "setting": "[2]", "result": "32 fluorescence/A600 (not printed)"}, {"measurement": "EC50 (FUS1p-RFP reporter)", "setting": "[2]", "result": "-8.2 log10 M (not printed)"}, {"measurement": "Fold Change (FUS1p-RFP reporter)", "setting": "[2]", "result": 5.2, "unit": "fold"}, {"measurement": "Span (FUS1p-RFP reporter)", "setting": "[2]", "result": "135 fluorescence/A600 (not printed)"}, {"measurement": "Top (FUS1p-RFP reporter)", "setting": "[2]", "result": "167 fluorescence/A600 (not printed)"}]}
{"binder": "WSWITLRPGQPIF", "note": "[Kl peptide ligand #1 WSWITLRPGQPIF]", "values": [{"measurement": "Bttm (FUS1p-RFP reporter)", "setting": "[3]", "result": "37.2 fluorescence/A600 (not printed)"}, {"measurement": "EC50 (FUS1p-RFP reporter)", "setting": "[3]", "result": "-7.3 log10 M (not printed)"}, {"measurement": "Fold Change (FUS1p-RFP reporter)", "setting": "[3]", "result": 6, "unit": "fold"}, {"measurement": "Span (FUS1p-RFP reporter)", "setting": "[3]", "result": "186 fluorescence/A600 (not printed)"}, {"measurement": "Top (FUS1p-RFP reporter)", "setting": "[3]", "result": "223 fluorescence/A600 (not printed)"}]}
{"binder": "WHWLQLKPGQPMY", "note": "[Sc peptide ligand #1 WHWLQLKPGQPMY (S. cerevisiae alpha-factor)]", "values": [{"measurement": "Bttm (FUS1p-RFP reporter)", "setting": "[4]", "result": "36.2 fluorescence/A600 (not printed)"}, {"measurement": "EC50 (FUS1p-RFP reporter)", "setting": "[4]", "result": "-8.9 log10 M (not printed)"}, {"measurement": "Fold Change (FUS1p-RFP reporter)", "setting": "[4]", "result": 7, "unit": "fold"}, {"measurement": "Span (FUS1p-RFP reporter)", "setting": "[4]", "result": "217 fluorescence/A600 (not printed)"}, {"measurement": "Top (FUS1p-RFP reporter)", "setting": "[4]", "result": "253 fluorescence/A600 (not printed)"}, {"measurement": "EC50 (FUS1p-RFP reporter)", "setting": "[5]", "result": "1.25 nM and ~1 nM"}]}
{"binder": "GDWGWFWYVPRPGDPAM", "note": "[Gc peptide ligand #1 GDWGWFWYVPRPGDPAM]", "values": [{"measurement": "Bttm (FUS1p-RFP reporter)", "setting": "[6]", "result": "22.9 fluorescence/A600 (not printed)"}, {"measurement": "EC50 (FUS1p-RFP reporter)", "setting": "[6]", "result": "-6.9 log10 M (not printed)"}, {"measurement": "Fold Change (FUS1p-RFP reporter)", "setting": "[6]", "result": 8.2, "unit": "fold"}, {"measurement": "Span (FUS1p-RFP reporter)", "setting": "[6]", "result": "164 fluorescence/A600 (not printed)"}, {"measurement": "Top (FUS1p-RFP reporter)", "setting": "[6]", "result": "187 fluorescence/A600 (not printed)"}]}
